Results on 5 molecules are retold here after US20030195337A1 (IMMUNEX, published 2003).

Some results are limits rather than exact numbers.

B1: ULBP4, full length, expressed on transfected CV-1 cells (ligand)
chain: HSLCFNFTIKSLSRPGQPWCEAQVFLNKNLFLQYNSDNNMVKPLGLLGKKVYATSTWGELTQTLGEVGRDLRMLLCDIKPQIKTSDPSTLQVEMFCQREAERCTGASWQFATNGEKSLLFDAMNMTWTVINHEASKIKETWKKDRGLEKYFRKLSKGDCDHWLREFLGHWEAMPEPTVSPVNASDIHWSSSSLPDRWIILGAFILLVLMGIVLICVWWQNGEWQAGLWPLRTS
notes: Full length cDNA in pDC409, expressed on CV-1 cells; The terminus was not determined for the cell-surface form itself
B2: ULBP3, full length, expressed on transfected CV-1 cells (ligand)
chain: DAHSLWYNFTIIHLPRHGQQWCEVQSQVDQKNFLSYDCGSDKVLSMGHLEEQLYATDAWGKQLEMLREVGQRLRLELADTELEDFTPSGPLTLQVRMSCECEADGYIRGSWQFSFDGRKFLLFDSNNRKWTVVHAGARRMKEKWEKDSGLTTFFKMVSMRDCKSWLRDFLMHRKKRLEPTAPPTMAPG
notes: Full length cDNA in pDC409, expressed on CV-1 cells
B3: murine NKG2D-Fc fusion protein (Fc fusion, UniProt O54709 90-232, looked up)
chain: FKETFQPVLCNKEVPVSSREGYCGPCPNNWICHRNNCYQFFNEEKTWNQSQASCLSQNSSLLKIYSKEEQDFLKLVKSYHWMGLVQIPANGSWQWEDGSSLSYNQLTLVEIPKGSCAVYGSSFKAYTEDCANLNTYICMKRAV
notes: extracellular domain; Soluble protein made in CV-1 cells; not shown: hinge and Fc region of a modified human IgG1 (Fc mutein of Baum et al. 1994)

Experiment [1] addresses ULBP3, full length, expressed on transfected CV-1 cells (human) (UniProt Q9BZM4). Kind of experiment: flow cytometry; Fc fusion protein on CV-1 cells transfected with full length ULBP; +++ = more than two logs above background.
In experiment [2] the target is ULBP4, full length, expressed on transfected CV-1 cells (human) (UniProt Q8TD07). The description is as above.
The target of experiment [3] is ULBP2, full length, expressed on transfected CV-1 cells (human) (UniProt Q9BZM5). Described as above.
Chain of ULBP2, full length, expressed on transfected CV-1 cells (human) (Q9BZM5 26-217 limits assumed): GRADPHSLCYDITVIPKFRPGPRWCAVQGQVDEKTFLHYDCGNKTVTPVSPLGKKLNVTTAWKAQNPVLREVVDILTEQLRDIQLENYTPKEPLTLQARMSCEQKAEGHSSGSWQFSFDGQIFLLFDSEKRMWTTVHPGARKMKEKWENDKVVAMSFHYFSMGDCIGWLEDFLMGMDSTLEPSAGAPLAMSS
In experiment [4] the target is ULBP1, full length, expressed on transfected CV-1 cells (human) (UniProt Q9BZM6). The experiment is described as above.
For experiment [5], the target named is human NK cells (primary, stimulated overnight with recombinant human IL-15) (human). Kind of experiment: flow cytometry; 1 ug protein on about one million IL-15 stimulated human NK cells, labeled anti-human IgG Fc; no protein control = 6. (In general: Flow cytometry measures light scatter and fluorescence of single cells or particles in a stream.)
In another experiment the target is T1, UL16-Fc fusion protein (human cytomegalovirus (HCMV); human, UniProt P16757 27-184; P01857 99-330 = IgG part).
T1 construct: extracellular domain;domain: modified human IgG1 Fc region; Soluble fusion protein prepared as in Cosman et al. 2001
T1 sequence (P16757 27-184, tags or fused parts left off): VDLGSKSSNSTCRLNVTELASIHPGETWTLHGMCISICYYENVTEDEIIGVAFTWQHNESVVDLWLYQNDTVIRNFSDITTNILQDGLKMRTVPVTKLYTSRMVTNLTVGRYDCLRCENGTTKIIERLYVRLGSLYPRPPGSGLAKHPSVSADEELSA
Kind of experiment: flow cytometry; Fc fusion protein on CV-1 cells transfected with full length ULBP, PE anti-human IgG Fc.

Experiment [6] has as its target B2. Described as above.

For “human NKG2D-Fc fusion protein (from UniProt P26718 73-216; P01857 99-330)”, the fluorescence above background (flow cytometry) (logabovebackground) in experiment [1], in experiment [2], in experiment [3] and in experiment [4] was > 2 throughout.
For the molecule “ULBP1:Fc fusion protein (from UniProt Q9BZM6 26-216)”, the Mean fluorescence intensity in experiment [5] was found to be 35.
As for B1, in the experiment with UL16-Fc fusion protein, the binding result is recorded as “no binding”.
For the molecule B2, the binding result with UL16-Fc fusion protein is listed as “no binding”.
Take B3: the binding result in experiment [6] is “no binding”.
